US10696642B2, “TEAD transcription factor autopalmitoylation inhibitors” (The General Hospital Corporation, priority 2015, dated 2020)

Substrate: CCCCCCCCCCCCCCCC(=O)SCCNC(=O)CCNC(=O)[C@H](O)C(C)(C)COP(=O)(O)OP(=O)(O)OC[C@H]1O[C@@H](n2cnc3c(N)ncnc32)[C@H](O)[C@@H]1OP(=O)(O)O
Experiment: TEAD2 YBD autopalmitoylation kinetics, palmitoyl-CoA dose-dependency
Format: biochemical, human
Conditions: other: recombinant TEAD2 YBD, alkyne palmitoyl-CoA, 3 min (FIG. 2J); pH 6.4
Protocol: Intact mass spectrometry analysis of the recombinant TEAD2-YBD was carried out. The peak corresponding to unmodified TEAD2 at 26497 Dalton. A small side peak was also observed at 26736 Dalton (FIG. 2E), consistent with a palmitate modification to the protein. […] Moreover, autopalmitoylation of TEAD2 YBD was confirmed by acyl-biotin exchange (ABE) assay, which converts S-palmitoylation to stable biotinylation for detection (FIG. 2G). With 1 μM of palmitoyl-CoA at neutral pH, TEAD2 YBD was autopalmitoylated within 2 min, and the palmitoylation levels reached saturation after 10 min (FIG. 2H). To determine dose-dependency of palmitoyl-CoA, recombinant TEAD2 YBD was incubated with various concentrations of alkyne palmitoyl-CoA for 3 min, and the reaction rate was determined by quantifying the intensities of streptavidin blots (FIG. 2I). […] The physiological palmitoyl-CoA concentrations range from 100 nM to 10 μM in cells.
Recombinant GST-TEAD2 or His6TEAD2 (500 ng) protein was incubated with the indicated concentrations of alkyne palmitoyl-CoA (Cayman Chemical) for 2 h or the indicated time in 50 mM MES, pH 6.4. […] Samples were analyzed by SDS-PAGE and streptavidin HRP. Bands intensity obtained from streptavidin blot were quantified using Image J (NIH) and the rate of palmitoylation in arbitrary unit was plotted against the concentration of palmitoyl-CoA. […]

B1: TEAD2 YBD (Homo sapiens) (protein)
chain: AWQARGLGTARLQLVEFSAFVEPPDAVDSYQRHLFVHISQHCPSPGAPPLESVDVRQIYDKFPEKKGGLRELYDRGPPHAFFLVKFWADLNWGPSGEEAGAGGSISSGGFYGVSSQYESLEHMTLTCSSKVCSFGKQVVEKVETERAQLEDGRFVYRLLRSPMCEYLVNFLHKLRQLPERYMMNSVLENFTILQVVTNRDTQELLLCTAYVFEVSTSERGAQHHIYRLVRD
notes: The cDNA encoding human TEAD2 (residues 217-447, TEAD2^217-447) was cloned into a pET29 vector; made in house; host or cells: E. coli BL21(DE3)-T1R
- Km: 0.8 µM
